In patent US11168316B2, “Chimeric clotting factors” (Bioverativ Therapeutics Inc., priority 2012, dated 2021):
Ends that are not written are not given here.

Molecular target: T1, thrombin (Homo sapiens, UniProt P00734)
T1 construct: followed by 50 μL of thrombin (278 nM, 10 μg/mL)
Assay: Cleavage of peptides by 1.4 nM thrombin (HPLC)
Format: biochemical
Details: 50 μM peptide, 37° C.
Description: FIG. 19 depicts the cleavage of Compounds 1, 4, 5 and 6 by 1.4 nM thrombin. Compounds 1, 4 and 5 incorporate PABC and different thrombin-cleavable substrates. 50 μL of peptide (1 mM) in water was added to 900 μL PBS. The mixture was incubated at 37° C. for 30 min, followed by 50 μL of thrombin (27.8 nM, 1 μg/mL), giving the following approximate initial concentrations: thrombin=1.4 nM, peptide=50 μM. The mixture was incubated at 37° C. Aliquots (95 μL) at various time points were quenched with 5 μL of hirudin (2 μM) and injected into the HPLC (C-18 column, CH3CN/H2O, 0 to 70% over 12 minutes, 60° C. 0.5 mL/min, λ=280 nm). The decreases of peptide peak areas were used to calculate yield.

With “Ala-Leu-Val-Pro-Arg-Ile-Val-Gly-Gly-Gln-Glu-NH2 (ALVPRIVGGQE-NH2; also: PABC self-immolative linker, place not given here) [Compound 6]” the “thrombin-mediated release of peptide IVGGQE” value was “not observed”.
